According to patent publication US20250163146A1 (published 2025):
Blank lines part the entries; values can stand above or below the binder they belong to.

Molecular target: Nb.d4C4-1
Assay: SPR

- Kd: 1.63 nM
B1: mDll4(N-EGF3) (ligand)
chain: GSGIFQLRLQEFVNQRGMLANGQSCEPGCRTFFRICLKHFQATFSEGPCTFGNVSTPVLGTNSFVVRDKNSGSGRNPLQLPFNFTWPGTFSLNIQAWHTPGDDLRPETSPGNSLISQIIIQGSLAVGKIWRTDEQNDTLTRLSYSYRVICSDNYYGESCSRLCKKRDDHFGHYECQPDGSLSCLPGWTGKYCDQPICLSGCHEQNGYCSKPDECICRPGWQGRLCNECIPHNGCRHGTCSIPWQCACDEGWGGLFCDQDLNYCTHHSPCKNGSTCSNSGPKGYTCTCLPGYTGEHCEL
modifications: biotinylated (site not stated)

- Kd: 1.43 nM
B2: hDLL4(N-EGF5) (ligand)
chain: SGVFQLQLQEFINERGVLASGRPCEPGCRTFFRVCLKHFQAVVSPGPCTFGTVSTPVLGTNSFAVRDDSSGGGRNPLQLPFNFTWPGTFSLIIEAWHAPGDDLRPEALPPDALISKIAIQGSLAVGQNWLLDEQTSTLTRLRYSYRVICSDNYYGDNCSRLCKKRNDHFGHYVCQPDGNLSCLPGWTGEYCQQPICLSGCHEQNGYCSKPAECLCRPGWQGRLCNECIPHNGCRHGTCSTPWQCTCDEGWGGLFCDQDLNYCTHHSPCKNGATCSNSGQRSYTCTCRPGYTGVDCELELSECDSNPCRNGGSCKDQEDGYHCLCPPGYYGLHCEHSTLSCADSPCFNGGSCRERNQGANYACECPPNFTGSNCEK
modifications: biotinylated in the flow cytometry titration (site not stated); not stated for the plate-coated protein
